Data as given in article PMC6197184, “Cyclophilin J limits inflammation through the blockage of ubiquitin chain sensing” (Nature Communications, 2018).
Blank lines part the entries; values can stand above or below the binder they belong to.

How the values were obtained:
[1] = target: T1, His-CYPJ (recombinant) (human, UniProt Q9H2H8 1-161); test: ITC
T1 chain: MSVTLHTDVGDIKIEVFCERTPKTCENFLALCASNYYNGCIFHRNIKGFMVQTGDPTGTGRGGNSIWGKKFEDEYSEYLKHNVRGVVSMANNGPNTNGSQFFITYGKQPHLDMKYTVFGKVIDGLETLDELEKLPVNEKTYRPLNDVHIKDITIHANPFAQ

[2] = target: T2, His-CYPJ (recombinant) (human, UniProt Q9H2H8 1-161); test: ITC; synthetic NZF peptides and His-CYPJ; MicroCal iTC200, standard procedure; conditions: both partners purified
T2 construct: cyclophilin J (CYPJ, PPIL3), human; also called recombinant His-CYPJ
T2 sequence (looked up): T1 chain

- Ka [1]: 1030 M⁻¹
- binding result [2]: binds
B1: TAB3-NZF peptide (peptide)
peptide: WNCDSCTFLNHPALNRCEQCEMP
notes: peptide from the NZF domain of TAB3; limits counted from C706 named in the introduction; source: synthetic peptide (DgPeptides)

- Ka [1]: 283 M⁻¹
- binding result [2]: binds
B2: TAB2-NZF peptide (peptide)
peptide: QWNCTACTFLNHPALIRCEQCEMP
notes: peptide from the NZF domain of TAB2; limits counted from C670 and C673 named in the introduction; source: synthetic peptide (DgPeptides)
